The nature of this data set: label from the status in PepcDB records.
“MKKLIFLTLSIVSFNNYAVDFVYRVDSTPPDVIFRDGFSLLGYNRNFQQFISGRSCSGGSSDSRYIATTSSVNQTYAIARAYYSRSTFKGNLYRYQIRADNNFYSLLPSITYLETQGGHFNAYEKTMMRLQREYVSTLSILPENIQKAVALVYDSATGLVKDGVSTMNASYLGLSTTSNPGVIPFLPEPQTYTQQRIDAFGPLISSCFSIGSVCQSHRGQRADVYNMSFYDARPVIELILSK”: the protein production entry is listed as “failed”.
For “MKTLEKVNYKGFIWPLAVGIVLWLITPWRPGGLSVQAWEMFAIFVATIVGCITKPLPIGGTTLLGMVVTVLVGLAPVKDVVNSKGVVIQTGILSSFGNSAAWLIAMAFIMAHGISKTGLGNRVAYVMIEKFGKRSIGIGYAITGLELMMGALIPSNSARTGGVTWPVVESISKSYDSKPNDPSRKKIGAYLDFMAFHANILSTALFITGAAPNLVAQQMAAQKGYQMSWVSWFWAALVPVLVATVIIPLVIYKMYPPEVKETPNAKNWADDKLKEMGPISKPEKIMATVFCLAILLWVLSGFFKIPQLDSAFVAFLAVTLLLITGVLSMEDALHETGAWNILIWLSILIFMAGKLISYGFIAWFAKFIQSEVHGINWGLVLVVLILLMFYTHYFFASGTAHMTALYLPFLTVATAMGAPLGLSAMLLAFTGVINASTTHYANGPASILATTGYVKQSEWWKMNFILGLIYMVIFGIVGTIWMKIIGIW” the value was “failed”.
Regarding “MSQLVTHAFDDATALSFDGRQFHGQVKAEYYNMVGPFGGITAATMLKAAMSHPERLGQPLALTVNFAAPAKVAPFVIEAVPVRTNRSTQHFTLTMMQDGEVVTTATAVFGIRRESWSHTEAVMPDVPPPADVPRFVAPAPLPWMQWYHVRLIRGSAFDEVQDATTYQWMRDDPPRPLDHAALAALCDTFVPRVYVKLKRPVPIGTVTFTVYFLADPETIFRQGTNELLGVARATGFSHGYFDQIGEVWSQDGDLLATTTQLVYMKAPVSGSS”, the protein production result is “not failed”.
Then “MELVAGSYEQVLFGFTVQRGPAKSGHQETWTPVADFTHHSHTASLSVLASNSRYVVSGSKDETIHIYDMKRKVEHGALVHHAGTVTCLKFHGNQHLISGAEDGHICIWDVKRWKCLKTFKAHRGHVTFLSIHPSGKLALSVGTDKTLRTWNLIEGRSAFIKNIKENAHIVEWSPSGGKYIVVVQNKVDVYRLGTASVSGTITNGKRISSVTFLSDSVLAVAGDEEVVRIFDCDSLECLCEFRAHENRVKDMVSFEVPDHHVLVTASNDGFIKMWTLPQDKKVPPSLLCEAKTGARLTCLTVWLDRAANGMASLPPAAEPCPDQPKTIEKESGDTVQEETSEPNSEKSDVSGDSKQPTKGNSPVTAKKRKMATMSEKKRKKKMSLTWQIPDFSSLSECPFDGILHVPVRRKYLLP”, with “failed”; and “MKTWIFICMSIAMLLWFLSTLRRKPSQKKGCIDAIIPAYNEGPCLAQSLDNLLRNPYFCRVICVNDGSTDNTEAVMAEVKRKWGDRFVAVTQKNTGKGGALMNGLNYATCDQVFLSDADTYVPPDQDGMGYMLAEIERGADAVGGIPSTALKGAGLLPHIRATVKLPMIVMKRTLQQLLGGAPFIISGACGMFRTDVLRKFGFSDRTKVEDLDLTWTLVANGYRIRQANRCIVYPQECNSPREEWRRWRRWIVGYAVCMRLHKRLLFSRFGIFSIFPMLLVVLYGVGIYLTTWFNEFITTGPHGVVLAMFPLIWVGVVCVIGAFSAWFHRCWLLVPLAPLSVVYVLLAYAIWIIYGLIAFFTGREPQRDKPTRYSALVEASTAYSQPSVTGTEKLSEA”, with “failed”.
For the sequence “MARGIWGVDSAQVVTDQLFQCVRTELGYPKFWGRYLSEVPNVSEGLTRDEIVRIRNYGVKVLPIYNAFREAVGYANGQVAARNAVFHARRLGIPKNKLLFANIEDFFAVDAAWIAAWVETLYPTGYRPGLYADPTKGDFAAAYCEAVSRNNQVAVQAVIWSAAPRPGTTKEQKAPRYQPAAPPCSANVWVWQYGRDAEVCPVDTNLADRRLLDFLY”, the protein production entry was “not failed”.
With “MGVNETGYVLIYGGSSWVSQPQALETIYPAENWQEIIQDFRQKQPDLPVVVIQGPDDEQFVRSLRDYSLDIKVTSPDNVGKLTAMIAGANLMLTTDSAPLHLSVAVQTYTIALFGSTDPVKLLPNSDKLLGIKSSTGRVADILPKAVLEKVWGGLEHHHHHH”, the protein production entry is reported as “failed”.
Take “MTEPCYVMVDQRFDEFVDTARAPEQIVHGFAWTEGPVWLDGAPFFNDIANKRMMRWTKQACAEVALDNSEFANGNTLDGAGQVVSGEHAGRRVIRRPDPTDPSAVEVIAERSEGKRLNSPNEVVVRSDGSVWFTNPPYGINSDIEGYPAESEIGGCFVFCPDPDGTLHAVATEFDKPNELAFSPDECRLFVADSGAIRGAIFPGIDDDLPHHVRVFDVDGVTLSNGRVFAVVAPGAPDGFRVDHEGYVWTSALDGIHCLSPEGALIGKIWLPRQTSIICFGGPPGQTMFITSSDKVYRVESTRRDAAHALRDRERNAE”: the protein production entry is “failed”.
Regarding “MMRFSNKFKKVPYLLQALLNVCLSFLALALSALLISETWYIVLFVYKSLFNKVDSYYEMLGELLIFFMYFEFIALIIKYFKSDFHFPLRYFIYIGITAVIRLIIIDHDQAISTFWWAMAILAMICGFFIANRRNSVVEH”, the protein production result is given as “failed”.
As to “MVQSQSLSTLTICGSVKVSSLLRNRLNSVKASSLIGDRCVSCQFLRKSPSFRSHWKSLKQRNLLRVEARWPFQGGGEQGLDPSSERSESANEDILIFFFQLDLATRVQVKTKCRVFISFKMVANGFDVLQY”, the protein production result is listed as “failed”.
As to “MSPFLRIGLSNFDCGSCQSCQGEAVNPYCAVLVKEYVESENGQMYIQKKPTMYPPWDSTFDAHINKGRVMQIIVKGKNVDLISETTVELYSLAERCRKNNGKTEIWLELKPQGRMLMNARYFLEMSDTKDMNEFETEGFFALHQRRGAIKQAKVHHVKCHEFTATFFPQPTFCSVCHEFVWGLNKQGYQCRQCNAAIHKKCIDKVIAKCTGSAINSRETMFHKERFKIDMP”, the protein production entry is “failed”.
“MRWNCSACWASSASANAGRRRHFDTSLWRASCSGYGARARQIQAAWIRADTPESTRVPATRRIRLLNPVVPVRSLSACRHLTRSRPPLRSFTMPHVVARSGDVMSSAAPPSCTSLLGLSLSMFVAPCTLTAAPLDTPVVNAPAPTPPTPDQAYPELFQAVQSGELFDDQKHFVDFLPLRDPALINADYLAQHDHPGFDLRKFVDANFEESPPVQTDAIRQDTALREHIDLLWPKLVRSQNHVPPYSSLLSLPHPYVVPGGRFREVYYWDSYFTMLGLVKSGQTTLSRQMLDNFAYLIDTYGHIPNGNRSYYLSRSQPPFFSYMVELQAGVEGQAVYQRYLPQLQKEYAYWMQGSDDVQPGQAARHVVRLADGSVLNRYWDERDTPRPEAWLHDTRTAAEVKDRPAAEVYRDLRAGAESGWDYTSRWLADGQNLRTIRTTAIIPIDLNSLLYHLERTLAQACAQPGAACSRDYAALAQQRKQAIDAHLWNKAGYYADYDWQTRTLSDQITAAALYPLFAGLASDDHAKRTASTVRRTLVRPGGLATTAVKTGQQWDEPNGWAPLQWVAVDGLRRYGEQALARTIGERFLAQVQALFAREHKLVEKYGLETNAAGGGGGEYALQDGFGWTNGVTLMLLNLYPGKGAKAAPAKRVRKTEAAAR”: the protein production result was “failed”.
Regarding “MQYATLELNNAFKVLFSLRQVQAAEMVIAPGDREGGPDNRHRGADQWLFVVDGAGEAIVDGHTQALQAGSLIAIERGQAHEIRNTGDTPLKTVNFYHPPAYDAQGEPLPAGEG”, the protein production entry is on record as “not failed”.
“MVVRQIRALLSSLLWAWRRARLQGRSAFQLVRACLREGAKGPRHFARRMAAYASGGSASPPPVSLDAYESWHSALPQLEVPADSGMISVIIPVCNTPELFLREAIESVRTQTYQNWEICIHDDASNEPHVGRILAEFKKRIPNLRVTRSETRSGIAATTNAALASARGRWVTFLDHDDVLDRNALAAVVDCHIKTGSAVVYTDHDMLGEDGRLRNPYFKPDWNYDLFLAQMYLGHLVSFEHDLIKRVGLTRSECDGSQDYDLVLRCVAAGAKVGHVPRVLYHWRMHAGSTAANADSKPYAHDSGKRAIQYHVDAVYPGAQVEDGPHLFCYDVRYPYAQHAPKASIIIPTRDGLDLLRPCIESIQGRTDYTNFEIIVVDNGSKDPATLEWLDAMSNEPWFRVLQADVPFNWSALNNLAAASAEGEVLVFLNNDTEVASADWLQRLVENALRPDVGACGALLLYADGSIQHAGVVVGMGGWADHVFKGQQPIHHQHLFVSPILRREVLAVTGACVAISRANFDAIGGFDESFVVCGSDVELCLRAMANGKRTVYVPEAILIHHESKTRDPRVIPESDFVRSAQAYSPYRESGDPFYSPNLDYMSPSPALRGAQADA”: the protein production entry was “failed”.
With “MVWGTFLKNKKPYSIKRQLTLSVGLLVSALLLISLYFSFQSAKHEVEEVYDARLGQSAKLMLLTLSISTETDTLANHRELFDQWMKNIDSLAKSDEDKATKFGHPYEQNLVFQFYRDNKLIWSSTPNLRSLSSSFYNNGYADITKDGVQWRTFQLSLPQTEHENEYVVVAEKQKIRKEIIHEIALSTSIEQLLLLPTLLLLLFWLIDRYFRPINDLRTAITQRNVHRLDRIHVTDNTTELAPLVEALNSLLSELEQAWQREKRFTRAAAHELKTPLTILRLNVENALESNDPEQLRGDLHNILQGIERTDRLIHQLLTLAKVDSLSERVFDNVELTPLLQTVVADLAPLALRQDQDISLSPAEVALSGDKMLLEVLFRNLVDNAIRYSGAHSEIQVSVQENRNAIKILISDTGPEIPQETRERIFEQFYRGHSEKGDGAGLGMSICKDIATLHSAIIELIPRENGKNTFVVAFPKH”, the protein production result was “failed”.
In the case of “MLTNGMKYHEKLVDESSRNILFIGQDRISGLYDTIGILSIDRKNKKLKIIMIPRDLYIDYSSRVKHYLEENGRLNDPDFYKINAAHLIGPYMKYEGKFGAYSMNFLAELIKEIFDIEVHDYVRVNTEGFVQIVDLFGGVDINVPYDMHYDDIYQDLHIHINKGWNHLDGKKAEGFVRYRQSNDEMGNITHSIGDYERKKNQINFIKAFIEQHGTMSNIDKLPSLISTLNKYMKHSIGVGDVLTTYIGYAKDVVLYKYPIETYTVTGKDKYMNQRYYIVIENDNKTSKVVDLEHHHHHH”, the protein production result is “failed”.
For “PLAGTITEADVRRYAASCCVQGVTTITDLHNDLADPTIEVYRSATSQADFGVRLVPALAAVSHTPEQAIAKLETLRGHASDKLHYGIVKLVVDGSIQGFTARLRWPGYHNGAANGLWYIAPEELPRLVEAYHRAGVQLHIHTNGDEATEVALDAIEAAQTVAPRPDHRHTLQHCQMASAAQFRRMKNLGVCANLFANHLYYWGDAHYELTMGPERAARLDATGTAQRIGVPFAIHSDAPVTPLAPLFTAWCAVNRVSSSGRVLGRDTEALTTEQALAAITIGAAYTLKMDHLVGSIETGKYADFVVLDEDPLAVPPERLKEIAVWGTVVGG”, the protein production result is “failed”.
For “EDLSAQPVQTKFPAYERVVLREAGFLRPVTIFGPIADVAREKLAREEPDIYQIAKSEPRDAGTDQRSSGIIRLHTIKQIIDQDKHALLDVTPNAVDRLNYAQWYPIVVFLNPDSKQGVKTMRMRLCPESRKSARKLYERSHKLRKNNHHLFTTTINLNSMNDGWYGALKEAIQQQQNQLVWVSEGKADGAT”, the protein production entry is “failed”.
As for “MKIRILGSGTSTGVPEIGCTCAVCTSKDPRDCRLRTSALVYTDDATILLDCGPDFREQMLRVPFGKIDAVLISHEHYDHVGGLDDLRPFCRFGEVPIYAETYTAERLRSRMPYCFVEHSYPGVPNIPLREIEPNRPFLVNHTEVLPLRVMHGKLPILGYRIGKLGYITDMLTMPDESFEQLQGIEVLVMNALRIAPHNTHQSLSEALEAVKRIGAKETWLIHMSHHIGLQADVEKQLPPHVHFAFDGLELECLEHHHHHH”, the protein production result is “failed”.
